Source: IntAct's records for PubMed 22665060

B1: Tight junction protein 2 (Homo sapiens), Q9UDY2-3 (parent)
chain: MEELIWEQYTVTLQKDSKRGFGIAVSGGRDNPHFENGETSIVISDVLPGGPADGLLQENDRVVMVNGTPMEDVLHSFAVQQLRKSGKVAAIVVKRPRKVQVAALQASPPLDQDDRAFEVMDEFDGRSFRSGYSERSRLNSHGGRSRSWEDSPERGRPHERARSRERDLSRDRSRGRSLERGLDQDHARTRDRSRGRSLERGLDHDFGPSRDRDRDRSRGRSIDQDYERAYHRAYDPDYERAYSPEYRRGARHDARSRGPRSRSREHPHSRSPSPEPRGRPGPIGVLLMKSRANEEYGLRLGSQIFVKEMTRTGLATKDGNLHEGDIILKINGTVTENMSLTDARKLIEKSRGKLQLVVLRDSQQTLINIPSLNDSDSEIEDISEIESNRSFSPEERRHQYSDYDYHSSSEKLKERPSSREDTPSRLSRMGATPTPFKSTGDIAGTVVPETNKEPRYQEDPPAPQPKAAPRTFLRPSPEDEAIYGPNTKMVRFKKGDSVGLRLAGGNDVGIFVAGIQEGTSAEQEGLQEGDQILKVNTQDFRGLVREDAVLYLLEIPKGEMVTILAQSRADVYRDILACGRGDSFFIRSHFECEKETPQSLAFTRGEVFRVVDTLYDGKLGNWLAVRIGNELEKGLIPNKSRAEQMASVQNAQRDNAGDRADFWRMRGQRSGVKKNLRKSREDLTAVVSVSTKFPAYERVLLREAGFKRPVVLFGPIADIAMEKLANELPDWFQTAKTEPKDAGSEKSTGVVRLNTVRQIIEQDKHALLDVTPKAVDLLNYTQWFPIVIFFNPDSRQGVKTMRQRLNPTSNKSSRKLFDQANKLKKTCAHLFTATINLNSANDSWFGSLKDTIQHQQGEAVWVSEGKMEGMDDDPEDRMSYLTAMGADYLSCDSRLISDFEDTDGEGGAYTDNELDEPAEEPLVSSITRSSEPVQHEESIRKPSPEPRAQMRRAASSDQLRDNSPPPAFKPEPPKAKTQNKEESYDFSKSYEYKSNPSAVAGNETPGASTKGYPPPVAAKPTFGRSILKPSTPIPPQEGEEVGESSEEQDNAPKSVLGKVKIFEKMDHKARLQRMQELQEAQNARIEIAQKHPDIYAVPIKTHKPDPGTPQHTSSRPPEPQKAPSRPYQDTRGSYGSDAEEEEYRQQLSEHSKRGYYGQSARYRDTEL
partner: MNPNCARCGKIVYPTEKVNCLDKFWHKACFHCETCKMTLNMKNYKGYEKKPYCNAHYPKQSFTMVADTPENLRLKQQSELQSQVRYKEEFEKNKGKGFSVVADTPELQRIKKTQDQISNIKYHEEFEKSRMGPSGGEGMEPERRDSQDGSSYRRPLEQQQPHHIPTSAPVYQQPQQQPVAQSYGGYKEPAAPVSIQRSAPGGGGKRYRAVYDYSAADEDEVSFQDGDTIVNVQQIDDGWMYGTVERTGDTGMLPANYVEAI

Variants of: B1
Conditions: with lasp1_human LASP1, Q14847

effect of a mutation on the interaction	Variant
disrupting interaction strength	P1106A;P1116A
decreasing interaction	P1106A
